B1: Flagellar biosynthesis protein FlhA (Salmonella typhimurium), P40729 (parent)
chain: MANLVAMLRLPSNLKSTQWQILAGPILILLILSMMVLPLPAFILDLLFTFNIALSIMVLLVAMFTQRTLDFAAFPTILLFTTLLRLALNVASTRIILMEGHTGAAAAGKVVEAFGHFLVGGNFAIGIVVFIILVIINFMVITKGAGRIAEVGARFVLDGMPGKQMAIDADLNAGLIGEDEAKKRRSEVTQEADFYGSMDGASKFVRGDAIAGILIMVINVVGGLLVGVLQHGMSIGSAAESYTLLTIGDGLVAQIPALVISTAAGVIVTRVSTDQDVGEQMVGQLFSNPRVMLLAAAVLGLLGMVPGMPNLVFLLFTAALLGLAWWLRGREEKAPEEPQPVKMPENNSVVEATWNDVQLEDSLGMEVGYRLIPMVDFQQDGELLGRIRSIRKKFAQDMGFLPPVVHIRDNMDLQPARYRILMKGVEIGSGDAYPGRWLAINPGTAAGTLPGEKTVDPAFGLDAIWIESALKEQAQIQGFTVVEASTVVATHLNHLIGQFSAELFGRQEAQQLLDRVSQEMPKLTEDLVPGVVTLTTLHKVLQNLLAEKVPIRDMRTILETLAEHAPLQSDPHELTAVVRVALGRAITQQWFPGNEEVQVIGLDTALERLLLQALQGGGGLEPGLADRLLAQTQEALSRQEMLGAPPVLLVNHALRPLLSRFLRRSLPQLVVLSNLELSDNRHIRMTATIGGK
B2: Flagellar biosynthesis protein FlhA (Salmonella typhimurium), P40729 (parent)
chain: B1 chain
partner: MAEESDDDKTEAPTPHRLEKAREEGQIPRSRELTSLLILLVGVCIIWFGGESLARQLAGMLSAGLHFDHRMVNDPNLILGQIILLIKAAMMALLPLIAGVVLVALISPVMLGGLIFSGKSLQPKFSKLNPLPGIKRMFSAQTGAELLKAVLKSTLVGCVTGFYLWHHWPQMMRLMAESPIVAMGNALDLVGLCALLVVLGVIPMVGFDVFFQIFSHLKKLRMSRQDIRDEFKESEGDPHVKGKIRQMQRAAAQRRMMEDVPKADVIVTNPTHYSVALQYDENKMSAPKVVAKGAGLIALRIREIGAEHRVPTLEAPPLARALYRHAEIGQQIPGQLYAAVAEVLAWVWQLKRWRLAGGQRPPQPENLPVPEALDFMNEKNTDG

Variants of: B1
Details: with flij_salty fliJ

Row | Variant | effect of a mutation on the interaction
1 | G368C | increasing interaction strength

Variants of: B2
Details: with flhb_salty flhB

Row | Variant | effect of a mutation on the interaction
2 | G368C | increasing interaction strength

— IntAct's records for PubMed 20118266
